The values that follow come from publication PMC3032389.

The assay concerns the target NMDA receptor NR1-1a subunit, full length (rat). Description: co-IP.

Take “C-terminal Src kinase (Csk) (from UniProt P41240 1-450) (enzyme)”: the Csk co-precipitated with NR1 after PP2 (10 μM), percent of that without PP2 came to 48%.
